# Measurements published in patent publication US20240002499A1, “ANTI-CLIC1 PROTEIN ANTIBODIES AND THE DIAGNOSTIC AND THERAPEUTIC USES THEREOF” (Universita' Degli Studi di Milano, priority 2020, published 2024).
# Legend:
# [1] = system: microglial cells; assay: ROS production in cultured microglial cells; assay type: cell-based, mice; settings: after addition of β-amyloid and antibody
# Method: A second functional experiment performed on microglial cells involved measuring the production of reactive oxygen species (ROS), which contribute to creating a highly oxidising environment harmful to the neurones. Once again (FIG. 5), a physiological increase in cytoplasmic ROS was recorded (baseline), with ROS production after addition of β-amyloid, and finally, cell oxidation during the simultaneous presence of amyloid peptide and the tmCLIC1omab antibody.
# [2] = system: human glioblastoma cells; assay: Growth curves of human glioblastoma cells in primary culture; assay type: cell-based
# Excerpt: The primary glioblastoma cell lines, already tested for stem cell properties and carcinogenicity, were kindly supplied by Professor T. Florio's laboratory at Genoa University (Genoa, Italy). The cells were obtained from a surgical biopsy performed in the Neurosurgery Department of IRCCS-AOU San Martino IST (Genoa, Italy), from patients who had not received any treatment before the operation. The samples were histologically classified as GB grade IV (according to the WHO classification), and were used after obtaining the patients' informed consent and the approval of the Institutional Ethics Committee (IEC). The cells were cultured in stem cell-permissive medium consisting of Dulbecco's Modified Eagle's Medium (DMEM) and F12-GlutaMAX at the ratio of 1:1, supplemented with 1×B27 (Thermo Fisher Scientific), […] of fibroblast growth factor (FGF, Miltenyi Biotec), […] of human epidermal growth factor (EGF, Miltenyi Biotec) and 1% penicillin/streptomycin (Pen/Strep, […]) (Thermo Fisher Scientific).
# The cells were seeded in 24-well plates (20,000 cells/well) and counted after 24, 48, 72 and 96 hours to construct the growth curve. The cells were collected and centrifuged, and the resuspended pellet was diluted 1:1 with Trypan Blue. An automated counter (Countess II, Thermo Fisher Scientific) was used to count the cells. All data were normalized to their controls.
# [3] = system: human glioblastoma cells; assay: ROS production in human glioblastoma cells in primary culture; assay type: cell-based
# Method: In the subsequent functional experiment, ROS production was measured over time. The graph in FIG. 11 relates to the acquisition of fluorescence signals proportional to the amount of cytoplasmic ROS in glioblastoma cells. The cells were treated with both the antibody and the tmCLIC1 channel blocker.
# [4] = system: COLO201; assay: Trans well migration and invasion assay; assay type: cell-based; settings: COLO201 WT, 72 h
# Method: The overexpression of tmCLIC1 in the most aggressive cell lines of colorectal cancer and its pivotal role in regulation of cell cycle progression and proliferation, opens a question on the function of tmCLIC1 activity on migration and invasion potential of CRCs, that makes colorectal cancer still uncurable. We performed a Trans well assay to understand whether CLIC1 impairment could affect the migration and invasion potential of COLO201. Cells were plated after 60 hours of serum deprivation on a porous membrane, permeable only to growth factor, in contact to complete medium. The resulting chemo-attractant gradient leads the migrative cells to cross the membranes that are then stained with DAPI to visualize the nuclei. […] For invasion assays, we coated with Matrigel the porous membrane to mimic the extracellular matrix that cells must disrupt to invade tissues and mucosa.
# Cells were plated after 60 hours of serum deprivation on a […] porous membrane, permeable only to growth factor, in contact to complete medium. Membranes were cut, stained with DAPI dye, and included with mowiol. Cover glasses were examined under Zeiss Examiner A1 fluorescence microscope with a Zeiss 40×/0.75 NA water immersion lens.
# [5] = system: Metalloproteinase 7 (MMP7); assay: Western blot of Metalloproteinase 7 in COLO201; assay type: cell-based; settings: COLO201, 72 h of treatment
# [6] = target: T1, tmCLIC1 (Mus musculus, UniProt Q9Z1Q5); assay: Immunofluorescence on live microglial cells; assay type: cell-based, mice; settings: live microglial cells before and after stimulation with β-amyloid
# T1 construct: endogenous in cells; host or cells: BV-2 mouse microglial cell line
# Method: The migration of the protein to the plasma membrane gives rise to insertion of CLIC1 as transmembrane protein. The tmCLIC1omab antibody was used on live cells to specifically identify tmCLIC1. […] In live cells, the tmCLIC1omab antibody was used before (B) and after (C) stimulation with β-amyloid.
# Immunofluorescence analyses were conducted to evaluate the specificity of the antibody in binding the transmembrane portion of the CLIC1 protein in WT and Clic1^−/− cells. The cells (5×10^4 cells/well) were plated on slides (ϕ12 mm). The cells were kept viable throughout the initial processes. The cells were washed three times with PBS Ca^2+/Mg^2+, and incubated for 45 minutes at room temperature in blocking solution (5% BSA in PBS). Subsequently, after removal of the blocking solution, the solution containing the antibody (3.5 μg/ml in PBS/BSA 5×) was added, and incubated for 1 h at room temperature. After three washes with PBS Ca^2+/Mg^2+, the cells were fixed with paraformaldehyde (PFA 2%) for 5 minutes at room temperature. After being washed three times with PBS Ca^2+/Mg^2+, the cells were incubated with secondary antibody Alexa Fluor 488 (Thermo Fischer Scientific) for 2 h at room temperature in the dark. […] The slides were observed through a Zeiss Examiner A1 fluorescence microscope with a Zeiss 40×/0.75 NA water immersion lens.
molecule,measurement,setting,value
"tmCLIC1omab: IgG1 class antibody containing the heavy chain variable region SEQ ID NO:13 and the light chain variable region SEQ ID NO:14 (antibody, listed as Mus musculus, V domains shown) VH: EVMLVESGGGLVKPGGSLKLSCAASGFAFSNYAMSWIRQIPEKRLEWVATISTGGSSTFYPDSVKGRFTISRDNAKNTLYLQMSSLRSEDTAMYYCTRHAYEAWFAYWGQGTLVTVSA VL: QIVLTQSPALMSASPGEKVTMTCSASSSVSYMYWYQQRPRSSPKPWIYLTSTLASGVPTRFSGSGSGTSYSLTISSMEAEDAATYYCQQWNSHPLTFGSGTKLEIK",ROS production,[1],falls to the control level
same,growth rate compared with Clic1−/− knockout cells,"[2]; glioblastoma cells, FIG. 9",the same growth rate
same,cell growth (growth curve),"[2]; primary culture, 4-day period",inhibited cell growth
same,fall in ROS production,"[3]; FIG. 11 legend, versus control",about fourfold
same,reduction of the slope of the ROS increase curve,[3]; fluorescence signals proportional to cytoplasmic ROS,about fivefold
same,migration (number of migrative nuclei) versus control,[4],significant lower number of migrative nuclei
same,invasion (number of invasive nuclei) versus control,[4]; Matrigel-coated membrane,the same behavior seen for migration assay
same,expression of Metalloproteinase 7,[5],mainly abolished
same,recognition of tmCLIC1 on live cells,[6],only reacts from the exterior
